Consider one molecule from patent US6790646B2, “Mutants of monoamine oxidase B” (Research Development Foundation, priority 1998, dated 2004).

For series [1], the system named is MAO B. Briefly: Kinetic analysis of wild-type and mutant MAO B with [14C]benzylamine substrate (transfected COS-7 cell homogenates). The class given is biochemical, human. The settings on record: activity too low to determine kinetic parameters. The method, then:
(§1) The wild-type and mutant MAO B enzymes were expressed in mammalian COS-7 cells, and the enzymatic properties of the native enzyme and its mutant enzymes were determined and compared. Wild-type and mutant MAO B cDNAs were transiently transfected into COS-7 cells by electroporation. Cells were harvested during late log phase growth and resuspended to a concentration of 3.125×10^6 cells/ml in DMEM supplemented with 10% fetal bovine serum (FBS). Fifteen μg of normal or mutant cDNA were added to 0.8 ml (2.5×10^6 cells) of cell suspension. Electroporation was carried out in a Bio-Rad Gene Pulser with a setting of 0.25 kV and 500 μF. Cells were resuspended in 15 ml of DMEM/FBS and incubated at 37° C. with 5% CO2 for 48 h.
(§2) Aliquots (20 μl) of transfected COS-7 cell homogenates were incubated for 10 min at 37° C. in the presence of various concentrations of [^14C]PEA (20 mCi/mmol) or [^14C]benzylamine (10 mCi/mmol) in 50 mM sodium phosphate buffer, pH 7.5 (200 μl total volume). Substrate concentrations ranged from 0.25-2.5 times the Km value (determined in pilot experiments) to yield 10 equally-spaced reciprocal increments. Parallel assays were carried out with untransfected COS-7 cell lysates as a control. Reactions were stopped by addition of 25 μl of 6 N HCl and the deaminated products were extracted by vortexing for 30 seconds with 500 μl of toluene or toluene:ethyl acetate (1:1) for benzylamine or PEA, respectively. Samples were processed as described previously (28). Apparent Km and Vmax values were determined by linear regression analysis of Lineweaver-Burk plots. Kcat values were calculated from the Vmax values divided by the concentration of wild-type or mutant MAO B determined in each experiment. Expression levels of wild-type or mutant MAO B were determined in triplicate for six separate experiments as follows: wild-type=11.1+2.07; F423A=9.30+1.89; E427Q=10.3+1.29; T428A=10.2+2.07; T428S=10.2+1.53 pmol MAO B/mg protein. Data are given as means +S.E.M. pmol/mg of protein determined using a subunit molecular weight of 58,800.

The next series relates to COS-7 cells. Nature of the series: Expression levels of wild-type or mutant MAO B in transfected COS-7 cells. The following applies: transiently transfected COS-7 cells, triplicate, six experiments, mean + S.E.M., subunit molecular weight 58,800. The method, then: as §1, §2
In series [2] the test system is MAO B. Nature of the series: pH profiles of wild-type and mutant MAO B enzymatic activity with [14C]benzylamine. It is filed as biochemical, human. The following applies: pH 6.0 to 9.0, 500 μM benzylamine. The method, then:
Aliquots (20 μl) of transfected COS-7 cell homogenates were incubated for 10 min at 37° C. in the presence of 500 μM (^14C)benzylamine (2.5 mCi/mmol) in 50 mM sodium phosphate buffer, pH 6.0, 6.5, 7.0, 7.5, 8.0, 8.5 or 9.0 (200 μl total volume). Reactions were stopped by addition of 25 μl of 6 N HCl. Parallel assays were carried out with untransfected COS-7 homogenates as a control. Samples were processed as previously described (28) and the derived specific activity values (nmol/min·mg protein) were divided by wild-type or mutant MAO B concentration, determined for each experiment, to obtain enzymatic activity values (nmol/min·m g MAO B). Enzymatic activities were determined in duplicate for three separate experiments.
To examine the possibility that the mutation effects a proton-dependent step in the reaction, the enzymatic activity of the mutant and wild-type MAO B enzymes was determined at different pH values from 6.0 to 9.0 (FIG. 4).

In series [3] the target is T1, MAO B (Homo sapiens, UniProt P27338, F423A).
T1 construct: expressed in transfected cells; host or cells: COS-7
T1 sequence (P27338 2-520 F423A): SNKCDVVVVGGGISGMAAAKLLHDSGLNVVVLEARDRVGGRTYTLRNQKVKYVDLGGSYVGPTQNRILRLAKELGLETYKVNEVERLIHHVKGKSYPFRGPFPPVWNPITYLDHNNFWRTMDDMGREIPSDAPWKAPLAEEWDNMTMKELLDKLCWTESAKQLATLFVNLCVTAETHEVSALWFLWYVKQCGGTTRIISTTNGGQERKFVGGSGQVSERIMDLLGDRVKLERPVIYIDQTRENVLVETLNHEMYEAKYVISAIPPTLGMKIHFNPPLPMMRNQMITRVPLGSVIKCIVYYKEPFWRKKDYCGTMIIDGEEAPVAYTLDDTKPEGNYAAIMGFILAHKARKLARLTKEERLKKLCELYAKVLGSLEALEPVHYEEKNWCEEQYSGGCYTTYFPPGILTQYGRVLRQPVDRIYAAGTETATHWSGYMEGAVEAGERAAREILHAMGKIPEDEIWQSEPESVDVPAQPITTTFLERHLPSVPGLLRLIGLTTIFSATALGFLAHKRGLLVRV
Briefly: Kinetic analysis of wild-type and mutant MAO B with [14C]PEA substrate (transfected COS-7 cell homogenates). The settings on record: substrate not stated in the sentence (Tables 1 and 2: PEA and benzylamine). The class given is biochemical. As to the method: as §1, §2

The subject of series [4] is MAO B. The series is described as above. The class given is biochemical, human. The following applies: PEA substrate; activity too low to determine kinetic parameters. As to the method: as §1, §2

B1: F423 A: human MAO B mutant, Phe residue at position 423 changed to Ala (protein, UniProt P27338 2-520, looked up, variant F423A)
Amine oxidase …: T1 sequence (P27338 2-520 F423A)
Turning to B1, the “activity relative to wild-type” value with MAO B [1] and in the series on MAO B [4] was “(<5% wt)” in each case. In the series on COS-7 cells, the Expression level is 9.30+1.89 pmol MAO B/mg protein. Moreover, in the series with MAO B [2], the “pH profile of enzymatic activity” value is recorded as “fairly similar to wild-type MAO B”. Also, the “decrease in activity compared to the wild-type enzyme” value with MAO B [3] is recorded as greater than 95 % reduction.
